Here are results for one substance from publication PMC7281310, “Pharmacokinetic Analysis of Epithelial/Endothelial Cell Barriers in Microfluidic Bilayer Devices with an Air–Liquid Interface” (Micromachines, 2020).

One series concerns some cell types. The following applies: 30 min exposure; cited from earlier work.
For series [1], the system named is A549 epithelial cells. Description: Trypan blue cell viability assay, A549. It is filed as cell-based, human. The following applies: insulin at 10 µM, 1 h exposure. As for the experimental part:
(§1) In general, higher compound concentration is desired since the emitted light intensity increases with molecular concentration enhancing the signal-to-noise ratio and, thereby, improving the reliability of the measured concentration. However, some compounds could be toxic agents to cell cultures; as the signal intensity increases with increasing compound concentration, cells could be adversely affected resulting in cell death. […] Epithelial and endothelial cells were seeded and cultured in 96-well plates for 48 h. The cell cultures were exposed to the selected compounds at various concentrations for 1 h and then washed using PBS. Next, the wells were immersed in 0.2% Trypan Blue for 10 min, after which the cells were fixed using 4% paraformaldehyde and rinsed with PBS. Using a brightfield microscope, dead cells were counted using uptake of trypan blue as a marker for nonviable cells.

Details of series [2]: method as in PMID 21641324, PMID 18646033. The following applies: under conditions similar to the present experiments; cited from earlier work.
Series [3] relates to A549 epithelial cells. The experiment in a line: Permeability in Transwells with A549 cell monolayer. It is filed as in vitro ADME, human. The settings on record: confluent A549 monolayer in apical chamber; 12-well Transwell, polyester membrane, 0.4 µm pores, 1.12 cm^2; static, top to bottom chamber; 2 h; endothelial cell media; C0 = 60, 3, 1, 3 µM for 4-dextran, C-dextran, 70-dextran, insulin; fluorescence plate reader; n = 3. On the procedure:
Commercially-available 12-well Transwells (Corning, Corning, NY, USA), with polyester membranes, were utilized to assess static compound permeability in the absence of flow-induced shear stress. The area of each Transwell membrane was 1.12 cm^2 with 0.4 µm diameter pores and 0.5% porosity. Epithelial cells were seeded in the Transwell top apical compartment at a density of 2 × 10^6 cells/mL. Once the cell monolayer had reached confluency, the 500 µL culture media in the top compartment was replaced with a solution of endothelial cell media mixed with various fluorescently-labeled compounds at a pre-determined initial concentration. The bottom basolateral compartment was filled with 1500 µL fresh endothelial cell culture media, and the Transwell was placed in an incubator for 2 h. Then, liquid samples of 100 µL from both compartments were aliquoted into a 96-well plate. Fluorescent intensities of the collected samples were measured, using a BioTek Synergy 2 Plate Reader (BioTek, Winooski, VT, USA), and converted to molecular concentrations as reported elsewhere. […]
(§2) Investigation of molecular transport across Transwell membranes is useful in establishing baseline permeability characteristics with no shear stress. […] The molecular concentration at the Transwell bottom chamber CT was then measured after 2 h. […]

For a further series, the system named is HUVEC endothelial cells. Description: Trypan blue cell viability assay, HUVEC. It is filed as cell-based, human. The following applies: tested concentration range 10^−3–10^1 µM, 1 h exposure. As for the experimental part: as §1
A short description of series [4]: Permeability in Transwells without cells. In kind it is in vitro ADME. The following applies: no cells; 12-well Transwell, polyester membrane, 0.4 µm pores, 1.12 cm^2; static, top to bottom chamber; 2 h; endothelial cell media; C0 = 60, 3, 1, 3 µM for 4-dextran, C-dextran, 70-dextran, insulin; fluorescence plate reader; n = 3. As for the experimental part:
Commercially-available 12-well Transwells (Corning, Corning, NY, USA), with polyester membranes, were utilized to assess static compound permeability in the absence of flow-induced shear stress. The area of each Transwell membrane was 1.12 cm^2 with 0.4 µm diameter pores and 0.5% porosity. Epithelial cells were seeded in the Transwell top apical compartment at a density of 2 × 10^6 cells/mL. Once the cell monolayer had reached confluency, the 500 µL culture media in the top compartment was replaced with a solution of endothelial cell media mixed with various fluorescently-labeled compounds at a pre-determined initial concentration. The bottom basolateral compartment was filled with 1500 µL fresh endothelial cell culture media, and the Transwell was placed in an incubator for 2 h. Then, liquid samples of 100 µL from both compartments were aliquoted into a 96-well plate. Fluorescent intensities of the collected samples were measured, using a BioTek Synergy 2 Plate Reader (BioTek, Winooski, VT, USA), and converted to molecular concentrations as reported elsewhere.
as §2

A short description of series [5]: Permeability of agitated vs un-agitated insulin in Transwells without cells. It is filed as in vitro ADME. The settings on record: agitated 5 min in jet nebulizer, 20 min diffusion time, fluorescence. On the procedure: The permeability values, calculated based on concentration measurements in the Transwell bottom compartments after 20 min diffusion time, are shown in Figure 10. […] It is; therefore, critical to maintain the stability of compounds during aerosol generation process in order to obtain reliable concentration–time plots using microfluidic bilayer devices with an air–liquid interface.

Series [6] can be described thus: Turbidity / fibril formation after agitation in jet nebulizer (fluorescent intensity, visual pellet). It is filed as physicochemical. On the procedure: In order to generate an aerosol, using a jet nebulizer, a high-pressure air stream is forced through a liquid solution to form a mixture of tiny liquid droplets suspended in air. […] Visual inspection of the upper jet nebulizer platform provides an indirect evidence for insulin fibril formation. The photographs of the nebulizer platform, shown in Figure 8, were taken following 5 min of the solution agitation.
The intensity of the agitated and un-agitated dextran is approximately the same (Ia/Iu ≅ 1), indicating constant transparency with and without agitation, which is consistent with the lack of a dextran pellet on the nebulizer platform. […] The initially lower intensity of the agitated insulin with its low transparency, which is correlated with the pellet formation on the nebulizer platform, can be due to insulin fibril formation.

Take “Insulin: Fluorescently tagged (FITC) insulin, 5.8 kDa, used at 3 µM as potential inhaled therapeutic compound”: the “Concentration at which some cell types start to exhibit signs of cell death” value with some cell types was “greater than 1 µM”. Moreover, the “A549 epithelial cell viability” value in the series on A549 epithelial cells [1] came to 88%. For the same substance, the “Time of fibril dissociation” value in series [2] is less than 1 h. Also, the “Permeability in Transwells, Pat” value in the series with A549 epithelial cells [3] was 5 ×10⁻⁶ cm/s; in series [4], 15.8 ×10⁻⁶ cm/s. Besides, the “Cytotoxicity to HUVEC cells (in words)” value in the series with HUVEC endothelial cells is listed as “did not have adverse effect”. The “Permeability of agitated solution compared with un-agitated solution” value in series [5] is “clearly lower”. Further, the “Time to reach steady-state Ia/Iu” value in series [6] (after 5 min agitation in a jet nebulizer) is no more than 20 min. Moreover, in series [6] (following 5 min of solution agitation), the “Pellet (solution turbidity) on nebulizer platform, visual inspection” value is recorded as “visible”. Moreover, the “Time for pellet to disappear” value in series [6] (following 5 min of solution agitation, visual inspection) is “within half an hour”.
